From patent publication US9969998B2, “Compositions of adenosine deaminase-2 (ADA2), variants thereof and methods of using same” (Halozyme, Inc., priority 2014, dated 2018)
Positions count from the first letter of the chain named. Numbers in names are those of the source.

Key:
[1] = Adenosine deaminase (ADA) enzymatic activity assay kit; assay type: biochemical; settings: purified protein at 5 μg/mL; for % of WT activity: compared to WT-ADA2
Method: Adenosine deaminase activity was determined using an adenosine deaminase (ADA) assay kit (Genway, San Diego, Calif.; Cat. No. BQ014EALD) with minor modifications. The ADA assay is based on the enzymatic deamination of adenosine to inosine, which is converted to hypoxanthine by purine nucleoside phosphorylase (PNP). Hypoxanthine is then converted to uric acid and hydrogen peroxide by xanthine oxidase (XOD). Hydrogen peroxide is further reacted with N-Ethyl-N-(2-hydroxy-3-sulfopropyl)-3-methylaniline (EHSPT) and 4-aminoantipyrine (4-AA) in the presence of peroxidase (POD) to generate quinone dye, which is monitored in a kinetic manner.
Briefly, 5 μL samples in duplicates (at appropriate dilutions to measure steady-state, non-saturating enzyme activity) were added to 120 μL R1 reagent (provided by the manufacturer; 50 mM Tris HCL, pH 8.0, 2 mM 4-AA, 0.1 U/mL PNP, 0.2 U/mL XOD, 0.6 U/mL peroxidase) in a 96 well plate, according to manufacturer's instructions. The mixtures were incubated at 37° C. for approximately 5 min and 60 μL of R2 reagent (provided by the manufacturer; 50 mM Tris HCl, pH 4.0, 10 mM Adenosine, 2 mM EHSPT) was added to the mixtures. Then, change in absorbance (AA) at 556 nm over time at 37° C. was measured. One unit of ADA is the amount of ADA that generates one μmole of inosine from adenosine per minute at 37° C. Adenosine deaminase activity in mU/mL was calculated using the following formula: 1 mU/mL=(ΔA/min×Tv)/(Sv×ϵ×1) • where Tv=total volume (185 μL), Sv=sample volume (5 μL), ϵ=32.2×10^−3 μM^−1 cm^−1, 1=0.5 cm.
Adenosine deaminase activity of WT rHuADA2 and variants tested above were determined using the adenosine deaminase activity (ADA) assay described in Example 4. Activity was assessed on purified rHuADA2 WT and variants that were diluted to 5 μg/mL, and then serially diluted 2 fold to generate 4 measurements.
Adenosine deaminase activity of PEGylated rHuADA2 and variants was assessed using the method described in Example 4, and compared to the activity of the corresponding non-PEGylated form.
Selected candidate variants described in Table 8 above, containing an amino acid substitution in a residue that play a role in enzymatic activity, were assessed for their adenosine deaminase activity using the method described in Example 4. To perform the experiments, purified WT rHuADA2 and tested variants were prepared at 5 μg/mL concentration to normalize the amount of protein in each experiment.

[2] = Kinetic assessment of adenosine deaminase activity (ammonia assay, Michaelis-Menten); assay type: biochemical; settings: [E] = 8.5 nM; for kcat: kcat=Vmax/0.0085/60
Method: Adenosine deaminase activity was determined by the measurement of ammonia released from adenosine when broken down to inosine. Ammonia was measured using a commercially available Ammonia Assay kit (Cat. No. AA0100, Sigma-Aldrich, St. Louis, Mo.). The kit contains dry reagents containing α-ketoglutaric acid and NADPH, which were reconstituted with 5 mL water prior to use in the assay. Ammonia reacts with α-ketogluaric acid (KGA) and reduced nicotinamide adenine dinucleotide phosphate (NADPH) in the presence of L-glutamate dehydrogenase (GDH).
Kinetics parameters of rHuADA2 WT and variants were compared using this assay at different adenosine concentrations at pH 7.6 and 6.5. Adenosine concentrations ranging from 20 μM to 20 mM were used. Sub-molar concentration of adenosine stock was prepared in 1N NaOH.
For the enzymatic assays at pH 7.6, adenosine was serially diluted with 100 mM sodium acetate (NaOAc), pH 4.9. A 2× reaction mixture was prepared, containing reconstituted ammonia assay reagent (containing about 4 mM α-ketoglutarate and about 300 μM NADPH), WT rHuADA2 or variants at 1 μg/mL (17 nM) and glutamate dehydrogenase (GDH, 1:50 dilution). 85 μL of adenosine was added to 85 μL 2× mixture in duplicate in a UV-transparent half-area plate. The change in absorbance (ΔA) at 340 nm over time at room temperature was monitored.
For the enzymatic assay at pH 6.5, adenosine was serially diluted with 200 mM piperazine-N,N′-bis(2-ethanesulfonic acid) (PIPES), pH 6.5. A 2× reaction mixture in 200 mM PIPES, pH 6.5 was prepared, containing 4 mM α-ketoglutarate, 300 μM NADPH, 1 μg/mL (17 nM) rHuADA2 or variants and 50 U/mL GDH (Cat No. G2626, Sigma-Aldrich). The enzymatic reaction was initiated by adding equal volume of adenosine to the 2× mixture in a UV-transparent half-area plate as described above, and the change in absorbance (AA) at 340 nm over time at room temperature was monitored.
Adenosine deaminase activity in mU/mL (μM/min equivalent) was calculated using the following formula: 1 mU/mL=−(−ΔA/min×Tv)/(Sv×ϵ×1) • where Tv=total volume (170 μL), Sv=sample volume (85 μL), ϵ=6.22×10^−3 μM^−1 cm^−1, 1=1 cm.
The activity data were fitted with non-linear regression of Michaelis-Menten equation using Graphpad Prism software to obtain Km and Vmax. Other kinetics parameters such as kcat and kcat/Km were also determined.

B1: S265A: ADA2 variant SEQ ID NO:51 (protein)
chain: IDETRAHLLLKEKMMRLGGRLVLNTKEELANERLMTLKIAEMKEAMRTLIFPPSMHFFQAKHLIERSQVFNILRMMPKGAALHLHDIGIVTMDWLVRNVTYRPHCHICFTPRGIMQFRFAHPTPRPSEKCSKWILLEDYRKRVQNVTEFDDSLLRNFTLVTQHPEVIYTNQNVVWSKFETIFFTISGLIHYAPVFRDYVFRSMQEFYEDNVLYMEIRARLLPVYELSGEHHDEEWSVKTYQEVAQKFVETHPEFIGIKIIYADHRSKDVAVIAESIRMAMGLRIKFPTVVAGFDLVGHEDTGHSLHDYKEALMIPAKDGVKLPYFFHAGETDWQGTSIDRNILDALMLNTTRIGHGFALSKHPAVRTYSWKKDIPIEVCPISNQVLKLVSDLRNHPVATLMATGHPMVISSDDPAMFGAKGLSYDFYEVFMGIGGMKADLRTLKQLAMNSIKYSTLLESEKNTFMEIWKKRWDKFIADVATK
modifications: human ADA2 S262A, mature numbering
[1]
  Adenosine deaminase activity mU/ml: 47.1 mU/ml
  Adenosine deaminase activity ΔA/min: 20.5 ΔA/min
  % of WT activity: 60%

B2: R222Q/R23E: ADA2 combination variant SEQ ID NO:265 (protein)
chain: B1 chain with R20E, R219Q, A262S
modifications: human ADA2 R219Q/R20E, mature numbering
[2]; pH 6.5
  Km: 0.84 mM
  Vmax: 60.47 µM/min
  kcat: 118.57 s⁻¹
[2]; pH 7.6
  Km: 1.46 mM
  Vmax: 84.71 µM/min
  kcat: 166.10 s⁻¹

B3: R222Q/S265N/K374E: ADA2 combination variant SEQ ID NO:268 (protein)
chain: B1 chain with R219Q, A262N, K371E
modifications: human ADA2 R219Q/S262N/K371E, mature numbering
[2]; pH 6.5
  Km: 0.8 mM
  Vmax: 45.53 µM/min
  kcat: 89.27 s⁻¹
[2]; pH 7.6
  Km: 1.35 mM
  Vmax: 65.43 µM/min
  kcat: 128.29 s⁻¹

B4: R222Q/S265N/R23E: ADA2 combination variant SEQ ID NO:270 (protein)
chain: B1 chain with R20E, R219Q, A262N
modifications: human ADA2 R219Q/S262N/R20E, mature numbering
[2]; pH 6.5
  Km: 1.01 mM
  Vmax: 40.59 µM/min
  kcat: 79.59 s⁻¹
[2]; pH 7.6
  Km: 1.29 mM
  Vmax: 67.24 µM/min
  kcat: 131.84 s⁻¹

B5: R222Q/K374D: ADA2 combination variant SEQ ID NO:264 (protein)
chain: B1 chain with R219Q, A262S, K371D
modifications: human ADA2 R219Q/K371D, mature numbering
[2]; pH 6.5
  Km: 0.79 mM
  Vmax: 60.87 µM/min
  kcat: 119.35 s⁻¹
[2]; pH 7.6
  Km: 1.71 mM
  Vmax: 77.01 µM/min
  kcat: 151.00 s⁻¹

B6: R222Q/S265N/K374D: ADA2 combination variant SEQ ID NO:269 (protein)
chain: B1 chain with R219Q, A262N, K371D
modifications: human ADA2 R219Q/S262N/K371D, mature numbering
[2]; pH 6.5
  Km: 0.76 mM
  Vmax: 50.89 µM/min
  kcat: 99.78 s⁻¹
[2]; pH 7.6
  Km: 1.19 mM
  Vmax: 70.96 µM/min
  kcat: 139.14 s⁻¹

B7: R222Q/K374E/R23E: ADA2 combination variant SEQ ID NO:266 (protein)
chain: B1 chain with R20E, R219Q, A262S, K371E
modifications: human ADA2 R219Q/K371E/R20E, mature numbering
[2]; pH 6.5
  Km: 0.86 mM
  Vmax: 54.48 µM/min
  kcat: 106.82 s⁻¹
[2]; pH 7.6
  Km: 1.92 mM
  Vmax: 78.42 µM/min
  kcat: 153.76 s⁻¹

B8: H267A: ADA2 variant SEQ ID NO:34 (protein)
chain: B1 chain with A262S, H264A
modifications: human ADA2 H264A, mature numbering
[1]
  Adenosine deaminase activity mU/ml: 70.9 mU/ml
  Adenosine deaminase activity ΔA/min: 30.8 ΔA/min
  % of WT activity: 91%

B9: S265M: ADA2 variant SEQ ID NO:53 (protein)
chain: B1 chain with A262M
modifications: human ADA2 S262M, mature numbering
[1]
  Adenosine deaminase activity mU/ml: 81.6 mU/ml
  Adenosine deaminase activity ΔA/min: 35.5 ΔA/min
  % of WT activity: 105%

B10: S265V: ADA2 variant SEQ ID NO:52 (protein)
chain: B1 chain with A262V
modifications: human ADA2 S262V, mature numbering
[1]
  Adenosine deaminase activity mU/ml: 66.1 mU/ml
  Adenosine deaminase activity ΔA/min: 28.8 ΔA/min
  % of WT activity: 85%

B11: R222Q/S265N/K374E/R23E: ADA2 combination variant SEQ ID NO:271 (protein)
chain: B1 chain with R20E, R219Q, A262N, K371E
modifications: human ADA2 R219Q/S262N/K371E/R20E, mature numbering
[2]; pH 6.5
  Km: 0.77 mM
  Vmax: 54.82 µM/min
  kcat: 107.49 s⁻¹
[2]; pH 7.6
  Km: 1.24 mM
  Vmax: 90.91 µM/min
  kcat: 178.25 s⁻¹

B12: R222Q/K374E: ADA2 combination variant SEQ ID NO:263 (protein)
chain: B1 chain with R219Q, A262S, K371E
modifications: human ADA2 R219Q/K371E, mature numbering
[2]; pH 6.5
  Km: 0.99 mM
  Vmax: 58.56 µM/min
  kcat: 114.82 s⁻¹
[2]; pH 7.6
  Km: 1.58 mM
  Vmax: 87.27 µM/min
  kcat: 171.12 s⁻¹

B13: H267Q: ADA2 variant SEQ ID NO:35 (protein)
chain: B1 chain with A262S, H264Q
modifications: human ADA2 H264Q, mature numbering
[1]
  Adenosine deaminase activity mU/ml: 89.3 mU/ml
  Adenosine deaminase activity ΔA/min: 38.8 ΔA/min
  % of WT activity: 114%

B14: R222Q/K374D/R23E: ADA2 combination variant SEQ ID NO:267 (protein)
chain: B1 chain with R20E, R219Q, A262S, K371D
modifications: human ADA2 R219Q/K371D/R20E, mature numbering
[2]; pH 6.5
  Km: 0.67 mM
  Vmax: 60.68 µM/min
  kcat: 118.98 s⁻¹
[2]; pH 7.6
  Km: 1.34 mM
  Vmax: 88.43 µM/min
  kcat: 173.39 s⁻¹
